Values of other authors, collected in patent publication US10786531B2, “Mineral salt-sulfonic acid compositions and methods of use” (BMG PHARMA SPA, priority 2009, dated 2020).

Settings: animal studies

B1: lactoferrin: globular, cationic, non-heme iron-binding protein (protein, UniProt P02788 20-710, looked up)
Lactotransferrin: GRRRSVQWCAVSQPEATKCFQWQRNMRKVRGPPVSCIKRDSPIQCIQAIAENRADAVTLDGGFIYEAGLAPYKLRPVAAEVYGTERQPRTHYYAVAVVKKGGSFQLNELQGLKSCHTGLRRTAGWNVPIGTLRPFLNWTGPPEPIEAAVARFFSASCVPGADKGQFPNLCRLCAGTGENKCAFSSQEPYFSYSGAFKCLRDGAGDVAFIRESTVFEDLSDEAERDEYELLCPDNTRKPVDKFKDCHLARVPSHAVVARSVNGKEDAIWNLLRQAQEKFGKDKSPKFQLFGSPSGQKDLLFKDSAIGFSRVPPRIDSGLYLGSGYFTAIQNLRKSEEEVAARRARVVWCAVGEQELRKCNQWSGLSEGSVTCSSASTTEDCIALVLKGEADAMSLDGGYVYTAGKCGLVPVLAENYKSQQSSDPDPNCVDRPVEGYLAVAVVRRSDTSLTWNSVKGKKSCHTAVDRTAGWNIPMGLLFNQTGSCKFDEYFSQSCAPGSDPRSNLCALCIGDEQGENKCVPNSNERYYGYTGAFRCLAENAGDVAFVKDVTVLQNTDGNNNEAWAKDLKLADFALLCLDGKRKPVTEARSCHLAMAPNHAVVSRMDKVERLKQVLLHQQAKFGRNGSDCPDKFCLFQSETKNLLFNDNTECLARLHGKTTYEKYLGPQYVAGITNLKKCSTSPLLEACEFLRK
- dose well tolerated with minimum toxic effects: 2000 mg/kg/day
